Measurements: patent US10227575B2, “Multi-domain enzymes having cutinase activity, compositions comprising same and uses thereof” (OZYMES, priority 2015, dated 2019)
Like-named read-outs stand apart in the source and are kept apart here. Marks after values point to notes of the source that are not given here.

Key:
[1] = Activity of crude culture supernatants from bioreactor; format: biochemical; details: pNP-dodecanoate
[2] = Specific activity of purified enzymes (standard esterase assay); format: biochemical
Protocol: In summary, using different techniques for enzyme purification, pure enzyme preparations were obtained and tested for their activity towards a standard esterase substrate, pNP-palmitate. Enzymatic activities of the purified variants are summarized below:
(§1) Esterase activity was determined by monitoring the formation of para-nitrophenol (pNP) at 410 nm from various pNP-esters using a Beckman UV spectrophotometer (model DU 640). Substrates were completely dissolved in 2-propanol (8 mM) and were then added to 50 mM Tris/HCl buffer pH 8.0 to give a final substrate concentration of 0.8 mM. The reaction (1 mL) was started by adding an appropriate amount of enzyme. One enzyme unit (U) was defined as the amount of enzyme that produced 1 μmol of product (pNP) per min; specific activity was expressed as U/mg protein. A molar extinction coefficient of 15 mM^−1 cm^−1 was used for the calculation.

[3] = Enzyme substrate profiles, esterase assays; format: biochemical; details: highest activity towards a specific substrate set to 100%
Protocol: as §1

Temperature optimum = format: biochemical; details: for Relative activity at temperature: highest activity set to 100%
Protocol: For estimation of the temperature optimum, buffer containing pNP-palmitate (see esterase assay in Example 20.1) was pre-incubated to reach the desired temperature, enzyme was then added, and the formation of pNP was assayed. For this experiment, Tris/HCl buffer was replaced with sodium phosphate buffer (50 mM, pH 8.0) to avoid a pH shift at the different temperatures.

[4] = Enzymatic activity in the presence of organic solvents; format: biochemical; details: buffer only = 100%
Protocol: Enzyme activity in various organic solvents was studied over a concentration range of 1-30% at room temperature. pNP-palmitate was completely dissolved in 2-propanol (8 mM) and then added to 50 mM Tris/HCl buffer pH 8.0 containing up to 30% organic solvent to give a final substrate concentration of 0.8 mM. The reaction was started by addition of enzyme and the formation of pNP was assayed as described above in Example 20.1.

pH dependence of enzymes = format: biochemical; details: for Relative activity (%): highest activity = 100%
Protocol: The influence of different pH values (from 5.5 to 11) on the activities of the purified enzymes was examined in three buffer systems (sodium acetate, sodium phosphate, and Tris-HCl) at room temperature using pNP-palmitate (see esterase assay in Example 20.1) as a substrate at a final substrate concentration of 0.8 mM.

[5] = Stability in the presence of hydrogen peroxide; format: physicochemical
Protocol: as §1
Purified cutinases were incubated at room temperature in the presence of 0, 30, 100, 300, 1500, and 3000 ppm of hydrogen peroxide. Residual enzyme activity was assayed (see Example 20.1) after 1, 2, 3, and 7 days of incubation.

[6] = format: biochemical, Petromyces albertensis; details: for Residual ochratoxin A (%): 5 ppm Ochratoxin A, 37° C., relative to incubation without enzyme
Protocol: The enzymes purified in Example 18 were tested for their ability to degrade the mycotoxin Ochratoxin A. In general, the mycotoxin was incubated with different concentrations of the enzyme, and the remaining mycotoxin concentration, as well the respective degradation products, were monitored by LC-MS over time (where possible/applicable).
Reactions were performed in 1 mL volumes in glass HPLC vials comprising the mycotoxin to be analyzed and the enzyme to be tested. For Ochratoxin A (Petromyces albertensis, 01877 Sigma), 50 μL of a 100 ppm stock solution in methanol (final concentration of 5 ppm) was added to 910 μL of distilled water and 40 μL of the enzyme to be tested. In control reactions, the volume of enzyme was substituted with distilled water. The reactions were incubated in an Eppendorf thermomixer at 37° C. with shaking at 750 rpm. 100 μL samples were withdrawn at 1, 4 and 24 h for chromatographic analysis.
Mycotoxin analysis was carried out using a Shimadzu LCMS-2020 equipped with a UV/vis detector. Chromatographic separation of 10 μL injected sample was carried out at 30° C. on a Kinetex 2.6 μm XB-C18 column 100 Å (50×2.1 mm) using a binary gradient. For Ochratoxin A, eluent A consisted of water and eluent B consisted of acetonitrile and the UV detection wavelength was 360 nm.
The five enzymes tested were screened for their ability to degrade 5 ppm (5,000 ppb) Ochratoxin A at 37° C.

B1: KrCUT: mature Kineococcus radiotolerans cutinase, amino acids 34-294 of SEQ ID NO: 1; SEQ ID NO: 6 (protein)
chain: ATCSDVDVVFARGTGETPGLGVVGGPFVRSLTGELSDRTVTSHAVDYAASSSQASAGPGATAMSAHVREVAAACPSTRFVLGGYSQGATVTDIALGIRTGTTTGTPVPAELAGRVAAVVVFGNPLGLSGRTIATASSTYGPKSKDYCNSSDSVCGSAPKTGTGGHLSYASNGSTTDGARFAAGLVRAAGTPTTPTPTPTPTPVPTTCVRDSTRDHVAADRAVSLYGRAYARGSRDSLGATSSYNVVSLQQVEGGWRLVTAC
modifications: Kineococcus radiotolerans; (1)..(261) KrCUT (lacking residues 1-33 of ssKrCUT)
[1]
  activity of crude culture supernatant: 1.6 U/mL
[2]; pNP-palmitate
  Enzymatic activity of the purified variant: 197 ± 3 U/mg
[2]; towards pNP-palmitate (standard assay)
  Spec. Act. (U/mg): 197 ± 3 U/mg
[3]
  Relative activity, pNP-acetate (C2): 2%
  Relative activity, pNP-butyrate (C4): 26 ± 2%
  Relative activity, pNP-caprylate (C8): 25 ± 3%
  Relative activity, pNP-decanoate (C10): 25 ± 3%
  Relative activity, pNP-myristate (C14): 100* %
  Relative activity, pNP-palmitate (C16): 98 ± 6%
Temperature optimum
  Temp. opt. (° C.): 45 °C
Temperature optimum; 20 ° C.
  Relative activity at temperature: 83 ± 5%
Temperature optimum; 25 ° C.
  Relative activity at temperature: 84 ± 4%
Temperature optimum; 30 ° C.
  Relative activity at temperature: 83 ± 4%
Temperature optimum; 35 ° C.
  Relative activity at temperature: 84 ± 4%
Temperature optimum; 40 ° C.
  Relative activity at temperature: 89 ± 6%
Temperature optimum; 45 ° C.
  Relative activity at temperature: 100* %
Temperature optimum; 50 ° C.
  Relative activity at temperature: 90 ± 4%
Temperature optimum; 55 ° C.
  Relative activity at temperature: 38 ± 3%
Temperature optimum; 60 ° C.
  Relative activity at temperature: 15 ± 5%
[4]; 2-Propanol 5% (v/v)
  Relative enzymatic activity (%): 55 ± 11%
[4]; 2-Propanol 10% (v/v)
  Relative enzymatic activity (%): 8%
[4]; Acetone 1% (v/v)
  Relative enzymatic activity (%): 71 ± 2%
[4]; Acetone 5% (v/v)
  Relative enzymatic activity (%): 47 ± 7%
[4]; Dimethyl sulfoxide (DMSO) 10% (v/v)
  Relative enzymatic activity (%): 106 ± 4%
[4]; Dimethyl sulfoxide (DMSO) 20% (v/v)
  Relative enzymatic activity (%): 14 ± 2%
[4]; Dimethyl sulfoxide (DMSO) 30% (v/v)
  Relative enzymatic activity (%): 2%
[4]; Dimethylformamide (DMF) 5% (v/v)
  Relative enzymatic activity (%): 55 ± 11%
[4]; Methanol 10% (v/v)
  Relative enzymatic activity (%): 91 ± 12%
[4]; Methanol 20% (v/v)
  Relative enzymatic activity (%): 8%
pH dependence of enzymes
  pH opt.: 8.5
pH dependence of enzymes; pH 6.5, sodium phosphate buffer
  Relative activity (%): 22 ± 1%
pH dependence of enzymes; pH 7.0, sodium phosphate buffer
  Relative activity (%): 53 ± 2%
pH dependence of enzymes; pH 7.5, sodium phosphate buffer
  Relative activity (%): 72 ± 4%
pH dependence of enzymes; pH 8.0, Tris/HCl
  Relative activity (%): 87 ± 6%
pH dependence of enzymes; pH 8.5, Tris/HCl
  Relative activity (%): 100* %
pH dependence of enzymes; pH 9.0, Tris/HCl
  Relative activity (%): 96 ± 4%
pH dependence of enzymes; pH 9.5, Tris/HCl
  Relative activity (%): 76 ± 7%
pH dependence of enzymes; pH 10, Tris/HCl
  Relative activity (%): 37 ± 5%
[5]; H2O2 30 ppm, Day 0
  Relative activity (%) after exposure to hydrogen peroxide: 100 ± 9%
[5]; H2O2 30 ppm, Day 1
  Relative activity (%) after exposure to hydrogen peroxide: 90 ± 6%
[5]; H2O2 30 ppm, Day 2
  Relative activity (%) after exposure to hydrogen peroxide: 75 ± 3%
[5]; H2O2 30 ppm, Day 3
  Relative activity (%) after exposure to hydrogen peroxide: 75 ± 8%
[5]; H2O2 30 ppm, Day 7
  Relative activity (%) after exposure to hydrogen peroxide: 76 ± 2%
[5]; H2O2 100 ppm, Day 0
  Relative activity (%) after exposure to hydrogen peroxide: 104 ± 6%
[5]; H2O2 100 ppm, Day 1
  Relative activity (%) after exposure to hydrogen peroxide: 91 ± 6%
[5]; H2O2 100 ppm, Day 2
  Relative activity (%) after exposure to hydrogen peroxide: 88 ± 6%
[5]; H2O2 100 ppm, Day 3
  Relative activity (%) after exposure to hydrogen peroxide: 76 ± 2%
[5]; H2O2 100 ppm, Day 7
  Relative activity (%) after exposure to hydrogen peroxide: 66 ± 2%
[5]; H2O2 300 ppm, Day 0
  Relative activity (%) after exposure to hydrogen peroxide: 102 ± 4%
[5]; H2O2 300 ppm, Day 1
  Relative activity (%) after exposure to hydrogen peroxide: 87 ± 2%
[5]; H2O2 300 ppm, Day 2
  Relative activity (%) after exposure to hydrogen peroxide: 74 ± 1%
[5]; H2O2 300 ppm, Day 3
  Relative activity (%) after exposure to hydrogen peroxide: 63 ± 2%
[5]; H2O2 300 ppm, Day 7
  Relative activity (%) after exposure to hydrogen peroxide: 49 ± 4%
[5]; H2O2 1,500 ppm, Day 0
  Relative activity (%) after exposure to hydrogen peroxide: 102 ± 10%
[5]; H2O2 1,500 ppm, Day 1
  Relative activity (%) after exposure to hydrogen peroxide: 80 ± 4%
[5]; H2O2 1,500 ppm, Day 2
  Relative activity (%) after exposure to hydrogen peroxide: 67 ± 4%
[5]; H2O2 1,500 ppm, Day 3
  Relative activity (%) after exposure to hydrogen peroxide: 44 ± 2%
[5]; H2O2 1,500 ppm, Day 7
  Relative activity (%) after exposure to hydrogen peroxide: 11 ± 1%
[5]; H2O2 3,000 ppm, Day 0
  Relative activity (%) after exposure to hydrogen peroxide: 98 ± 9%
[5]; H2O2 3,000 ppm, Day 1
  Relative activity (%) after exposure to hydrogen peroxide: 60 ± 2%
[5]; H2O2 3,000 ppm, Day 2
  Relative activity (%) after exposure to hydrogen peroxide: 33 ± 1%
[5]; H2O2 3,000 ppm, Day 3
  Relative activity (%) after exposure to hydrogen peroxide: 20 ± 4%
[5]; H2O2 3,000 ppm, Day 7
  Relative activity (%) after exposure to hydrogen peroxide: no activity was detected
[6]; 1 h
  Residual ochratoxin A (%): 63%
[6]; 4 h
  Residual ochratoxin A (%): 17%
[6]; 24 h
  Residual ochratoxin A (%): 7%
[6]; per 1 U of enzyme (pNP standard test) and hour at 37° C.
  Ochratoxin A Degradation per U and h: 0.02 µmol
